Positions count from the first letter of the chain named.
Key:
Experiment in all cases: fluorescence polarization; FP: 50 mM Tris pH 7.5, 50 mM KCl, 5 mM MgCl2, no ATP; Hill-slope fit; temperature not given in the material
DDX21Fl monomer = biological target: T1, DDX21Fl monomer (human, UniProt Q9NR30 1-783, L611R;A612R;A613R;A614R;L615R;A616R); conditions: protein: recombinant
T1 sequence: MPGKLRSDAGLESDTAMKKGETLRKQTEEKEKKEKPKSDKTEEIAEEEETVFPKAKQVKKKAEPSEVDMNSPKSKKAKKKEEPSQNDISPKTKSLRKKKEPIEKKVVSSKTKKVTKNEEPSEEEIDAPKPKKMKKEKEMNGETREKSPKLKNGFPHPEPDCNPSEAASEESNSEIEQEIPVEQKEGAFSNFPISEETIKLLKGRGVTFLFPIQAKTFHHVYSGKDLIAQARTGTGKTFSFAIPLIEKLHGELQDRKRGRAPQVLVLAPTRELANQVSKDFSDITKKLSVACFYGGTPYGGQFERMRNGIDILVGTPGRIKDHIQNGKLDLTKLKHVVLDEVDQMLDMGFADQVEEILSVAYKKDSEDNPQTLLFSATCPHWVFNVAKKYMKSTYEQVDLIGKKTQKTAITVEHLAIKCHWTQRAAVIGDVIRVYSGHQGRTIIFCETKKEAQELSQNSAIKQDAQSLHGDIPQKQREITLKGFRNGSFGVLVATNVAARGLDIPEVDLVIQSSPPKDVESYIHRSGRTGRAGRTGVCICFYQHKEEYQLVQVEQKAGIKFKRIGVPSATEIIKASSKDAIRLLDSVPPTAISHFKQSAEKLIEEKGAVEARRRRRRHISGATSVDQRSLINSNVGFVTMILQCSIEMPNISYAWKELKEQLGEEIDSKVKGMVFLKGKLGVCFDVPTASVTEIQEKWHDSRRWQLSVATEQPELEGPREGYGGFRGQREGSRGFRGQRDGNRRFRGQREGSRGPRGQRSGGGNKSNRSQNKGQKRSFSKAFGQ

DDX21ΔN monomer = biological target: T2, DDX21ΔN monomer (human, UniProt Q9NR30 186-783, L611R;A612R;A613R;A614R;L615R;A616R); conditions: protein: recombinant
T2 sequence: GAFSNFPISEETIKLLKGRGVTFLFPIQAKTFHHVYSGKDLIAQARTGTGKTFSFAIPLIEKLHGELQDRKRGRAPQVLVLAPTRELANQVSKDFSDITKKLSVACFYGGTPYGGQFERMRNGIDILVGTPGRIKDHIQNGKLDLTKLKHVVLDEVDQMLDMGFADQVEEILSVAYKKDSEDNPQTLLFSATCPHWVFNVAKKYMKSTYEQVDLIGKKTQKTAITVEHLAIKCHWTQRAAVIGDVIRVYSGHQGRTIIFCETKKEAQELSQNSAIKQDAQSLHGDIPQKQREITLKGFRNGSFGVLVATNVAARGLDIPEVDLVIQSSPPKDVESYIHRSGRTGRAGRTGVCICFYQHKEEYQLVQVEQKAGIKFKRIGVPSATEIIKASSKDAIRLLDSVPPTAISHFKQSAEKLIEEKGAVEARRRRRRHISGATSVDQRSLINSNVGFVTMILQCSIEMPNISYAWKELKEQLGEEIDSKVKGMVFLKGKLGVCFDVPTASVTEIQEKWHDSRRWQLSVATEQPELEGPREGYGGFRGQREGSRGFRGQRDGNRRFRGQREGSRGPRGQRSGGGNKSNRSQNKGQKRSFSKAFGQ

DDX21Core = biological target: T3, DDX21Core (human, UniProt Q9NR30 186-564); conditions: protein: recombinant
T3 sequence: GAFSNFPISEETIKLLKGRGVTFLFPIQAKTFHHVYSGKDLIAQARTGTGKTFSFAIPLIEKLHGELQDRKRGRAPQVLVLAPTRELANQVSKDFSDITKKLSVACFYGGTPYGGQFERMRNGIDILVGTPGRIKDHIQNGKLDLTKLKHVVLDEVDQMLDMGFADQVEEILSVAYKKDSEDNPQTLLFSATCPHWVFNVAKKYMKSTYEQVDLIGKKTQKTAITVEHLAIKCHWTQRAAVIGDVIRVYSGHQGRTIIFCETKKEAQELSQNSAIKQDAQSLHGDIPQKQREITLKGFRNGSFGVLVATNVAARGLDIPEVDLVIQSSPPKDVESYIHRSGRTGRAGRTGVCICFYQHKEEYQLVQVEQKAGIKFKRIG

DDX21ΔN = biological target: T4, DDX21ΔN (human, UniProt Q9NR30 186-783); conditions: protein: recombinant, chain copies: 2
T4 sequence: T2 sequence with R426L, R427A, R428A, R429A, R430L, R431A

[1] = label: 5'-FAM on 15-mer, 3' overhang 15 nt

B1: dsRNA 15/30mer 3' overhang (dsRNA)
RNA 1: GUUUCGGAUCGACGC
RNA 2: GCGUCGAUCCGAAACUAUACUUAAUUUUAA
With B1 the Kd (DDX21Fl monomer; [1]) was 13.9 ± 2.5 nM, the Kd (DDX21ΔN monomer; [1]) was 122 ± 19.3 nM and the Kd (DDX21Core; [1]) was 353 ± 27.9 nM. It also gave a Kd (DDX21ΔN; [1]) of 15.5 ± 0.8 nM.

GUUUCGGAUCGACGC (ssRNA) [15-mer ssRNA] was tested, and the Kd (DDX21Fl monomer; label: 5'-FAM, single strand) was 29.9 ± 2.7 nM, the Kd (DDX21ΔN monomer; label: 5'-FAM, single strand) was 24.9 ± 1.7 nM and the Kd (DDX21Core; label: 5'-FAM, single strand) was 1520 ± 112 nM. It also gave a Kd (DDX21ΔN; label: 5'-FAM, single strand) of 40.3 ± 2.6 nM.

Source: paper PMC7721647, “The Human RNA Helicase DDX21 Presents a Dimerization Interface Necessary for Helicase Activity” (iScience, 2020)
